One data set has as its target T1, rOs1BGlu4 (Oryza sativa, UniProt Q5N863).
T1 construct: gene BGLU4; full-length ORF (483 aa, no signal peptide, about 55 kDa) in pET32a(+), E. coli Origami B(DE3); Trx-His6 tag removed with enterokinase
T1 sequence (Q5N863 1-483): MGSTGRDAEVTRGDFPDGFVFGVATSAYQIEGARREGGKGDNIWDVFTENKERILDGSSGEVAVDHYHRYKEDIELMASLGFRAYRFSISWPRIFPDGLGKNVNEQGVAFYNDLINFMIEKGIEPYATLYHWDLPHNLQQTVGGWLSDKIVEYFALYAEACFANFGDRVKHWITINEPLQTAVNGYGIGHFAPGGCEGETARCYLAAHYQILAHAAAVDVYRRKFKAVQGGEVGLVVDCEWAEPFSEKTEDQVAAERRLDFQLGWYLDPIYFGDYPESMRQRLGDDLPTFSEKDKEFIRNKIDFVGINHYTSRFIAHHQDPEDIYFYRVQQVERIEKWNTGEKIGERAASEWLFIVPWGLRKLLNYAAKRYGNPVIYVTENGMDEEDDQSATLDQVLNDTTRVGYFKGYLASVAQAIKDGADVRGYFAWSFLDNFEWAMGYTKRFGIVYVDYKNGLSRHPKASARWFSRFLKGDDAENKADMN
The data set can be described thus: inhibition of pNPGlc hydrolysis, […] nm. The data set is classed as biochemical. The note with it: read-out: Relative activity remaining (%).

Substrate in data set [1]: C[C@H]1O[C@@H](Oc2ccc([N+](=O)[O-])cc2)[C@H](O)[C@@H](O)[C@H]1O
The data set can be described thus: purified protein. The data set is classed as biochemical, Oryza sativa. To be noted: 50 mM sodium phosphate pH 6.5, 30°C (standard assay).

Substrate in data set [2]: O=[N+]([O-])c1ccc(O[C@@H]2OC[C@H](O)[C@H](O)[C@H]2O)cc1
The data set can be described thus: purified protein. The data set is classed as biochemical, Oryza sativa. The note with it: 50 mM sodium phosphate pH 6.5, 30°C (standard assay).

Substrate in data set [3]: O=[N+]([O-])c1ccc(O[C@@H]2O[C@H](CO)[C@@H](O[C@@H]3O[C@H](CO)[C@@H](O)[C@H](O)[C@H]3O)[C@H](O)[C@H]2O)cc1
The data set can be described thus: initial-rate hydrolysis, glucose release by peroxidase/glucose oxidase assay, nonlinear Michaelis-Menten fit. It counts as biochemical, Oryza sativa. The note with it: 50 mM sodium phosphate pH 6.5, 30°C (standard assay).

Substrate in data set [4]: O=[N+]([O-])c1ccc(O[C@@H]2O[C@H](CO)[C@@H](O)[C@H](O)[C@H]2O)cc1
The data set can be described thus: purified protein. To be noted: 50 mM sodium phosphate pH 6.5, 30°C (standard assay).

Substrate in data set [5]: O=[N+]([O-])c1ccc(O[C@@H]2O[C@H](CO)[C@@H](O)[C@H](O)[C@@H]2O)cc1
The data set can be described thus: purified protein. The note with it: 50 mM sodium phosphate pH 6.5, 30°C (standard assay).

Substrate in data set [6]: O=[N+]([O-])c1ccc(O[C@@H]2O[C@H](CO)[C@H](O)[C@H](O)[C@H]2O)cc1
The data set can be described thus: purified protein. To be noted: 50 mM sodium phosphate pH 6.5, 30°C (standard assay).

`OC[C@H]1OC(O)[C@H](O)[C@@H](O)[C@H]1O` (stereo partly drawn) [D-Galactose]: the remaining activity at 10000 µM at rOs1BGlu4 was found to be 93%.

Turning to `OC[C@H]1OC(O)[C@H](O)[C@@H](O)[C@@H]1O` (stereo partly drawn) [D-Glucose], the remaining activity at 10000 µM on rOs1BGlu4 is 90%.

For `O=C1O[C@H](CO)[C@@H](O)[C@H](O)[C@H]1O` [δ-glucono-lactone], on rOs1BGlu4, the remaining activity at 1000 µM was 14%.

On to `OC[C@H]1OC(O)[C@@H](O)[C@@H](O)[C@@H]1O` (stereo partly drawn) [D-Mannose], for which the remaining activity at 10000 µM at rOs1BGlu4 is 73%.

For `N[C@H]1C(O)O[C@H](CO)[C@@H](O)[C@@H]1O` (stereo partly drawn) [D-Glucosamine], on rOs1BGlu4, the remaining activity at 10000 µM worked out at 84%.

As to `OC1OC[C@@H](O)[C@H](O)[C@H]1O` (stereo partly drawn) [D-Xylose], the remaining activity at 10000 µM on rOs1BGlu4 is 85%.

In the case of `OC1OC[C@H](O)[C@H](O)[C@H]1O` (stereo partly drawn) [L-Arabinose], the remaining activity at 10000 µM at rOs1BGlu4 was found to be 61%.

B1: rOs1BGlu4 (Oryza sativa Japonica Group) (protein)
chain: MGSTGRDAEVTRGDFPDGFVFGVATSAYQIEGARREGGKGDNIWDVFTENKERILDGSSGEVAVDHYHRYKEDIELMASLGFRAYRFSISWPRIFPDGLGKNVNEQGVAFYNDLINFMIEKGIEPYATLYHWDLPHNLQQTVGGWLSDKIVEYFALYAEACFANFGDRVKHWITINEPLQTAVNGYGIGHFAPGGCEGETARCYLAAHYQILAHAAAVDVYRRKFKAVQGGEVGLVVDCEWAEPFSEKTEDQVAAERRLDFQLGWYLDPIYFGDYPESMRQRLGDDLPTFSEKDKEFIRNKIDFVGINHYTSRFIAHHQDPEDIYFYRVQQVERIEKWNTGEKIGERAASEWLFIVPWGLRKLLNYAAKRYGNPVIYVTENGMDEEDDQSATLDQVLNDTTRVGYFKGYLASVAQAIKDGADVRGYFAWSFLDNFEWAMGYTKRFGIVYVDYKNGLSRHPKASARWFSRFLKGDDAENKADMN
notes: full-length ORF (483 aa, no signal peptide, about 55 kDa) in pET32a(+), E. coli Origami B(DE3); Trx-His6 tag removed with enterokinase
B1: the Km in “purified protein [1]” stood at 710 ± 20 µM; in “purified protein [2]”, 380 ± 20 µM; in data set [3], 140 ± 10 µM; in the data set “purified protein [4]”, 710 ± 20 µM; in the data set “purified protein [5]” it was 2240 ± 30 µM; in the data set “purified protein [6]”, 7330 ± 320 µM. Moreover, the turnover number (kcat) came out at 6.61 ± 0.08 s⁻¹ in “purified protein [1]”; 0.52 s⁻¹ in “purified protein [2]”; 3.44 ± 0.18 s⁻¹ in data set [3]; 12.8 s⁻¹ in “purified protein [4]”; 1.25 s⁻¹ in “purified protein [5]”; 3.16 s⁻¹ in the data set “purified protein [6]”. For the same molecule, the kcat/Km worked out at 9340 M⁻¹ s⁻¹ in “purified protein [1]”; 1370 M⁻¹ s⁻¹ in “purified protein [2]”; 24400 M⁻¹ s⁻¹ in data set [3]; 17900 M⁻¹ s⁻¹ in “purified protein [4]”; 560 M⁻¹ s⁻¹ in “purified protein [5]”; 430 M⁻¹ s⁻¹ in the data set “purified protein [6]”.
